Experimental findings from publication PMC1931592 are described below.

The target of test [1] is Recombinant human caspase-9 (active) (human) (UniProt P55211). In words: enzyme inhibition assay (fluorogenic substrate cleavage); one unit of active recombinant human caspase incubated with various concentrations of peptide inhibitor in 100 mM NaCl, 50 mM HEPES, 10 mM DTT, 1 mM EDTA, 10% glycerol, 0.1% CHAPS, pH 7.4, 37°C, 30 min; then 200 μM substrate (Ac-DEVD-MCA for caspases-3 and -7, Ac-IETD-MCA for caspase-8, Ac-LEHD-MCA for caspase-9); apparent Ki = IC50/(1+[S]/Km).

Test [2] has as its target T1, substituted (S209A) active caspase-3 generated by coexpression of HA-p17 and HA-p12 (S209A) subunits (human) (UniProt P42574).
T1 sequence 1: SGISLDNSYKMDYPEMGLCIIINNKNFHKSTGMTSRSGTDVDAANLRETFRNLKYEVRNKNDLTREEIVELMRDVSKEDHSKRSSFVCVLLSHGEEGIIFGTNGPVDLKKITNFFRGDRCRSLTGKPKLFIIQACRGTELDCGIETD
T1 sequence 2: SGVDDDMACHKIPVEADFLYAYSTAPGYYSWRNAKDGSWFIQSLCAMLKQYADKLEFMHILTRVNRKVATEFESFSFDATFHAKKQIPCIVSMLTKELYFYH

Recombinant human caspase-9 (active) (human), sequence (P55211 whole entry): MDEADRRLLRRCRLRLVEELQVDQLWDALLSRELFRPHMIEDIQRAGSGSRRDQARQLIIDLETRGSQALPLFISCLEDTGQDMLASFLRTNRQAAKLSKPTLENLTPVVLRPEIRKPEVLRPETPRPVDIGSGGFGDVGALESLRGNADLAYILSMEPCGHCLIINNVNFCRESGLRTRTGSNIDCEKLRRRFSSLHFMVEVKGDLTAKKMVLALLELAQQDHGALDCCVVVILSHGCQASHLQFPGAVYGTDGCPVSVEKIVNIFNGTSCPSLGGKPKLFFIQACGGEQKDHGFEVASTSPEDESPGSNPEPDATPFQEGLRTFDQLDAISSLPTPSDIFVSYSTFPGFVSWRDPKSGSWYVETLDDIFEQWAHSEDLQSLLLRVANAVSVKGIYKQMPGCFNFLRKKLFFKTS

Turning to Ac-DEVD-CHO (peptide), the Ki in test [1] worked out at 1.35 nM.
For the substance Ac-DNLD-CHO (peptide), the Ki in test [1] was > 200 nM.
On to Ac-DNLD-MCA (peptide), for which the cleavage of Ac-DNLD-MCA by in vitro translated S209A active caspase-3, against the wild type (% loss of cleavage activity) in test [2] is > 60.
